From paper PMC9369236, “Unravelling the Adaptation Mechanisms to High Pressure in Proteins” (International Journal of Molecular Sciences, 2022)

How the values were obtained:
[1] = biological target: Phosphomannose isomerase from Thermococcus kodakarensis, expressed from pET-16b (Thermococcus kodakarensis); experiment: SEC; AKTA FPLC, XK50-60 column with 1 L Superdex 75 Prep-Grade resin, calibrated with the GE Healthcare Low Molecular Weight kit; elution at double the expected MW; self-association (dimer)
[2] = biological target: the molecule itself; experiment: as above

Phosphomannose isomerase from Thermococcus kodakarensis, expressed from pET-16b (enzyme)
stoichiometry N [1]: 2

B1: Phosphomannose isomerase from Thermococcus barophilus, expressed from pET-16b (enzyme)
chain: MKAEIKEFIDRGTYRKAPLFEGELPEGSYAQIVEIKPKQTVPKHYHEKQYELFYIISGQAKLGIEEREYDAKPGDIFLVKPKTVHWVVNKKEEPFRLFVIKLNYFGDDSVWLE
notes: Phosphomannose isomerase (PMI) of Thermococcus barophilus, gene TERMP_00744, synthetic codon-optimized gene; Construct for neutron scattering; removal of the tag is not mentioned; also called Tba PMI; PMI
stoichiometry N [2]: 2
